Consider one molecule from US20240199755A1 (KYMAB, published 2024).

One assay concerns the target BMP-4. Briefly: SPR steady state analysis, BMP-4 immobilised, Tfr2-ECD 10-5000 nM as analyte, 1:1 interaction assumed. On the procedure: (§1) The binding analysis was performed at 37° C. at a flow rate of 30 μl/min. Each analyte was diluted in running buffer (HBS-P (pH 7.4), 150 mM NaCl, supplemented with 50 nM FeCl₃). In some experiments, 500 mM NaCl were used to reduce potential non-specific binding. […] Concentration-dependent binding of holo-Tf was performed without intermediate regeneration.
(§2) The kinetic fitting was performed by global fitting using the 1:1 Langmuir binding model (A+B=AB). Steady state analyses were conducted to determine the affinities (Kd). […] Binding and kinetic parameters were evaluated with Biacore™ T200 evaluation software 3.1.

The target of assay [1] is T1, BMP-2.
T1 construct: The BMP-2 used in the heterotopic ossification model was from Thermo Fisher, and in the co-IP from Peprotech; Species is never stated, so all are treated as one molecule; also called bone morphogenetic protein 2
T1 sequence (P12643 283-396, species assumed, looked up): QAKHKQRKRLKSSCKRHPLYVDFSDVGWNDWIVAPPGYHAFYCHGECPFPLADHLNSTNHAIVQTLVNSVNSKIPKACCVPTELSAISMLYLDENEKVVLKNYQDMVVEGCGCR
Description: SPR binding level normalised to molecular weight, Tfr2-ECD immobilised; reference holo-Tf.
Description: All experiments were performed three independent times. FIG. 15a: Quantification of the binding level normalized to the molecular weight. […] FIG. 15b: Binding response of different concentrations of holo-Tf and/or BMP-2. […] (n=4). FIG. 15d: SPR analyses. […] Binding response is relative to BMP-2 alone. […] FIGS. 15b and 15d: One-way ANOVA was used for statistical analysis. […] Two-way ANOVA with Bonferroni post-hoc test was used for statistical analysis. […] All data are presented as mean±SD.

Assay [2] concerns the target T1, BMP-2. Description: SPR steady state analysis, BMP-2 immobilised, Tfr2-ECD 10-5000 nM as analyte, 1:1 interaction assumed. On the procedure:
as §1, §2

BMP-4, sequence (P12644 293-408): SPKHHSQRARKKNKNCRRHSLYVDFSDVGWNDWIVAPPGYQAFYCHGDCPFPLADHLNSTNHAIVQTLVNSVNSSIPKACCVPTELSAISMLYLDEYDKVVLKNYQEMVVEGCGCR

B1: Tfr2 extracellular domain (Tfr2-ECD), murine, aa 103-798, recombinant His-tagged (receptor, not shown: large carriers)
chain: RGSCQACGDSVLVVDEDVNPEDSGRTTLYWSDLQAMFLRFLGEGRMEDTIRLTSLRERVAGSARMATLVQDILDKLSRQKLDHVWTDTHYVGLQFPDPAHANTLHWVDADGSVQEQLPLEDPEVYCPYSATGNATGKLVYAHYGRSEDLQDLKAKGVELAGSLLLVRVGITSFAQKVAVAQDFGAQGVLIYPDPSDFSQDPHKPGLSSHQAVYGHVHLGTGDPYTPGFPSFNQTQFPPVESSGLPSIPAQPISADIADQLLRKLTGPVAPQEWKGHLSGSPYRLGPGPDLRLVVNNHRVSTPISNIFACIEGFAEPDHYVVIGAQRDAWGPGAAKSAVGTAILLELVRTFSSMVSNGFRPRRSLLFISWDGGDFGSVGATEWLEGYLSVLHLKAVVYVSLDNSVLGDGKFHAKTSPLLVSLIENILKQVDSPNHSGQTLYEQVALTHPSWDAEVIQPLPMDSSAYSFTAFAGVPAVEFSFMEDDRVYPFLHTKEDTYENLHKMLRGRLPAVVQAVAQLAGQLLIRLSHDHLLPLDFGRYGDVVLRHIGNLNEFSGDLKERGLTLQWVYSARGDYIRAAEKLRKEIYSSERNDERLMRMYNVRIMRVEFYFLSQYVSPADSPFRHIFLGQGDHTLGALVDHLRMLRADGSGAASSRLTAGLGFQESRFRRQLALLTWTLQGAANALSGDVWNIDNNF
notes: Expressed in Sf9 insect cells (pOCC211-Tfr2-ECD) and purified on HisTrap; Experiments were repeated with a commercial Tfr2-ECD from Cusabio (aa 103-798); also called His-Tfr2-ECD; His-MBP-c3-Tfr2-ECD
For the molecule B1, the Kd with BMP-4 is 409 nM; with BMP-2 [2], 488 nM. Moreover, in the assay with BMP-2 [1], the “fold binding relative to holo-Tf” value stood at 10 fold.
